Earlier results as cited in PMC8915186.

Biological target: IL-1R1 (Homo sapiens) (UniProt P14778)
Chain of UniProt P14778 (P14778 18-569): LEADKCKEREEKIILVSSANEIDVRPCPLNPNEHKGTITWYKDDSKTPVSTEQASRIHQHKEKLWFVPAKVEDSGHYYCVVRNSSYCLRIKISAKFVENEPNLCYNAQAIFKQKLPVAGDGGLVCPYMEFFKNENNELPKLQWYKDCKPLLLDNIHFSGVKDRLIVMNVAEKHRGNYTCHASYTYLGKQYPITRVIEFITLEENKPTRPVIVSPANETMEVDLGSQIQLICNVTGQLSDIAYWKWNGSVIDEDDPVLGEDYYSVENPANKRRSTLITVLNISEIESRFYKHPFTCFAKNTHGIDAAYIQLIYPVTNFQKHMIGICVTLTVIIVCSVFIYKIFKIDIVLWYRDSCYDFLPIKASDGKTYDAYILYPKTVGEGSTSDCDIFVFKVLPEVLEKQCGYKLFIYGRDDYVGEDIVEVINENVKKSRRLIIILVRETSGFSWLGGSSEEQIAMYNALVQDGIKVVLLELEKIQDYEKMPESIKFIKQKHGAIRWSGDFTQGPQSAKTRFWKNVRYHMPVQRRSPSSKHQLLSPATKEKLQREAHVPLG

For IL-1β (from UniProt P01584), the Kd is given as 2 nM.
